A word on the EC50: it is the concentration that produces a half-maximal response.

In assay [1] the target is T1, human GPC3 expressed on cells (SK-Hep1::huGPC3; HepG2, Hep3B and MKN-45 tumor cells) (human, UniProt P51654 25-554).
T1 construct: whole, on cells; also called GPC3-positive tumor cells; human GPC3-expressing cells
As to the kind of experiment: flow cytometry on MKN-45 tumor cells (GPC3 moderate). As for the experimental part: (§1) 5×10⁴ cells per well were incubated for 1 h in ice-cold PBS containing 5% fetal calf serum (PBS-FCS). A dilution series of the testing molecule were added to the cells and incubated for 1 h on ice. Cells were washed twice with PBS and then incubated with a goat anti-hlgG Alexa647-labeled antibody or goat anti-hlgG Alexa488-labeled antibody for 30 min on ice. Cells were subsequently washed and analyzed using iQue Flow cytometer (Intellicyte Screener). Mean geometric fluorescent signals were plotted and fitted with Graphpad software. The geometric means of the fluorescence intensity were used to calculate EC₅₀ values using a four-parameter logistic regression with bottom fixed to background.
For flow cytometric analysis, tumor cell lines with different GPC3 expression levels (high to moderate expression: HepG2>Hep3B>MKN-45) and GPC3 negative cell line NCI-N87 were incubated with an exemplary fusion protein SEQ ID NOs: 87 and 82, the GPC3 antibody or the CD137 specific lipocalin mutein (Fc fusion) as included in the fusion protein (SEQ ID NOs: 81 and 82 and SEQ ID NO: 98, respectively), a reference CD137 antibody SEQ ID NOs: 26 and 27, or an isotype control (SEQ ID NO: 24 and 25), and detected using a fluorescently labeled anti-human IgG antibody as described in Example 6.
(In flow cytometry, cells or beads pass a laser one at a time.)

Assay [2] has as its target T1, human GPC3 expressed on cells …. Put plainly: flow cytometry on SK-Hep1::huGPC3 cells, anti-human IgG detection. Here is the method:
For flow cytometric analysis, respective cell lines were incubated with an exemplary fusion protein (SEQ ID NOs: 87 and 82), the GPC3 antibody or the CD137 specific lipocalin mutein (Fc fusion) as included in the fusion protein (SEQ ID NOs: 81 and 82 and SEQ ID NO: 98, respectively), a reference CD137 antibody SEQ ID NOs: 26 and 27, or an isotype control (SEQ ID NOs: 24 and 25) and detected using a fluorescently labeled anti-human IgG antibody in FACS analysis as described in the following:
as §1

T1 sequence (P51654 25-554 limits assumed): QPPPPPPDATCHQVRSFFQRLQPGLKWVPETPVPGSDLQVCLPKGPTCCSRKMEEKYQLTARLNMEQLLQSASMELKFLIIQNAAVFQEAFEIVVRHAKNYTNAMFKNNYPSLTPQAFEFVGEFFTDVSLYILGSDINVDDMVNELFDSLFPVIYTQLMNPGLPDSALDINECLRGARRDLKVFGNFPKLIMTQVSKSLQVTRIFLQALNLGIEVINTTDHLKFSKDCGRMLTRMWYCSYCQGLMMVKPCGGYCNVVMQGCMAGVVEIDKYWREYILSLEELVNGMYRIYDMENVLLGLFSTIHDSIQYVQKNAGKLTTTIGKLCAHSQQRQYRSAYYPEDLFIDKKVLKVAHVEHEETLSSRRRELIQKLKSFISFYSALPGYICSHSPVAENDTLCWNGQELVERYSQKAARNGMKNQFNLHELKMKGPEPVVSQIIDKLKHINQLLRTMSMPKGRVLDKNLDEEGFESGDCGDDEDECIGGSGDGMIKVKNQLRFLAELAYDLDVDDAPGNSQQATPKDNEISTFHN

B1: fusion protein SEQ ID NOs: 87 and 82 (bispecific antibody, human IgG4 S228P, kappa, F234A L235A)
heavy: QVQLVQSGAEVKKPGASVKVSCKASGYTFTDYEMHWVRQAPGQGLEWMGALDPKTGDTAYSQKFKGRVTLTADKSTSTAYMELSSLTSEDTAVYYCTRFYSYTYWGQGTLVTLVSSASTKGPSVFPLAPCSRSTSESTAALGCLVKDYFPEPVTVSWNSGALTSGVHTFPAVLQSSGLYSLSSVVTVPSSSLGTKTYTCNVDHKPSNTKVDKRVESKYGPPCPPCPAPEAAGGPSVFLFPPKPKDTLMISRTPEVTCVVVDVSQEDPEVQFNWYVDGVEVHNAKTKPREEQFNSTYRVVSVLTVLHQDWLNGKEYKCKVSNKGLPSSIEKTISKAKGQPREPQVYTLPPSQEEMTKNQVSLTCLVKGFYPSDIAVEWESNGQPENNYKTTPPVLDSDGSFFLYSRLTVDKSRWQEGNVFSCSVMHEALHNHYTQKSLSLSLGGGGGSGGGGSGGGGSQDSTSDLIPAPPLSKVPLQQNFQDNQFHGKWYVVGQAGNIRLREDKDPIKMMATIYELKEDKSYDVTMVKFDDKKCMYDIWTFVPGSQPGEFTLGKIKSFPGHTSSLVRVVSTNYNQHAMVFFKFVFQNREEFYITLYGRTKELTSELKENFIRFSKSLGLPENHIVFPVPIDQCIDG
light: DVVMTQSPLSLPVTPGEPASISCRSSQSLVHSNRNTYLHWYLQKPGQSPQLLIYKVSNRFSGVPDRFSGSGSGTDFTLKISRVEAEDVGVYYCSQNTHVPPTFGQGTKLEIKRTVAAPSVFIFPPSDEQLKSGTASVVCLLNNFYPREAKVQWKVDNALQSGNSQESVTEQDSKDSTYSLSSTLTLSKADYEKHKVYACEVTHQGLSSPVTKSFNRGEC
notes: also called exemplary fusion protein
Take B1: the EC50 in assay [1] is 2.59 nM; in assay [2] it was 23.2 nM.

The values above are taken from US20220153864A1 (Pieris, published 2022).
